Experimental data published in US20220243213A1, “ANTI-CRISPR INHIBITORS” (THE REGENTS OF THE UNIVERSITY OF CALIFORNIA, published 2022).
Residue numbers refer to the chain shown, from its start.

Columns and labels:
[1] = biological target: Listeria monocytogenes Cas9 (LmoCas9) (Listeria monocytogenes); experiment: cell-based or functional assay
[2] = tested on: AcrIIA1 (phage A006) (Listeria phage A006); experiment: MST; conditions: 34 nM stated in Example 5 (p151)
[3] = tested on: AcrIIA1 NTD (Listeria phage A006); experiment: MST
Aca1 [4] = biological target: T1, Aca1 (Pseudomonas aeruginosa phage JBD30); experiment: EMSA; no shift up to 250 nM; conditions: tags: p15TV-L expression, Ni-NTA purified; chain copies: 2 (inferred; HTH proteins stated generally dimeric)
T1 chain: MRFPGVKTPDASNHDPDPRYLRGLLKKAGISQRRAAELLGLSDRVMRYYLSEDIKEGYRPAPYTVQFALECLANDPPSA
Procedure: (§1) Representative non-denaturing polyacrylamide gels stained with SYBR gold are shown. Purified Aca1 was added to the DNA at concentrations of 10 nM, 50 nM, 100 nM and 250 nM. […] FIG. 3F: The anti-CRISPR promoter region from phage JBD30 either wild-type (WT), or bearing IR1 and/or IR2 mutations was cloned upstream of a promoterless lacZ gene. β-galactosidase activity was measured in PA14 (−Aca1) or in a JBD30 lysogen (+Aca1). The mean β-galactosidase activity relative to the wild-type promoter is shown, with error bars representing standard error of the mean (n≥3). FIG. 3G: Ten-fold dilutions of lysates of anti-CRISPR phage JBD30 carrying the indicated inverted repeat mutations were applied to lawns of CRISPR-Cas intact PA14 or CRISPR deleted PA14 (PA14ΔCRISPR). Representative images from three biological replicates are shown.
Aca1 acts on the acr promoter. Aca1 proteins are bioinformatically predicted to contain a helix-turn-helix (HTH) DNA-binding motif (FIG. 8A). HTH-containing proteins are generally dimeric and bind to inverted repeat sequences. We identified two such sites with very similar sequences which we refer to as IR1 and IR2, flanking the −35 region of the acrIF1 promoter (FIG. 3B). […]

Aca1 [5] = biological target: T1, Aca1; experiment: EMSA; two shifted bands; 10-250 nM Aca1; conditions: tags: p15TV-L expression, Ni-NTA purified; chain copies: 2 (inferred; HTH proteins stated generally dimeric)
Procedure: as §1, with “FIG. 3E: Electrophoretic mobility shift assays (EMSAs) were performed utilizing a fragment of dsDNA with the sequence shown, which encompasses the acr promoter region. The IR1 and IR2 mutants contained the triple and quadruple base substitutions indicated under the DNA sequence. Representative non-denaturing” for “Representative non-denaturing”
Aca1 acts on the acr promoter. Aca1 proteins are bioinformatically predicted to contain a helix-turn-helix (HTH) DNA-binding motif (FIG. 8A). HTH-containing proteins are generally dimeric and bind to inverted repeat sequences. […]

Aca1 [6] = biological target: T1, Aca1; experiment: EMSA; 10 mM HEPES pH 7.5, 1 mM MgCl2, 20 mM KCl, 1 mM TCEP, 6% glycerol, on ice; second shifted band at higher concentrations; conditions: tags: p15TV-L expression, Ni-NTA purified; chain copies: 2 (inferred; HTH proteins stated generally dimeric)
Excerpt: Aca1 acts on the acr promoter. Aca1 proteins are bioinformatically predicted to contain a helix-turn-helix (HTH) DNA-binding motif (FIG. 8A). HTH-containing proteins are generally dimeric and bind to inverted repeat sequences. We identified two such sites with very similar sequences which we refer to as IR1 and IR2, flanking the −35 region of the acrIF1 promoter (FIG. 3B). To determine whether Aca1 could bind to the anti-CRISPR promoter region, purified Aca1 was mixed with a 110 bp dsDNA fragment containing the acr promoter and an electrophoretic mobility shift assay (EMSA) was performed. […] At higher Aca1 concentrations, a second shifted band was observed, consistent with the presence of two Aca1 binding sites within this fragment.
Electrophoretic mobility shift assay. Varying concentrations of purified Aca1 or Aca1 mutants were mixed with 20 ng of target DNA (gel purified PCR product or annealed oligo) in binding buffer (10 mM HEPES pH 7.5, 1 mM MgCl₂, 20 mM KCl, 1 mM TCEP, 6% v/v glycerol) and incubated on ice for 20 minutes. The DNA-protein complexes were separated by gel electrophoresis at 100 V on a 6% native 0.5× TBE polyacrylamide gel. Gels were stained at room temperature with Sybr gold (Invitrogen) and visualized according to the supplier's instructions. Bands were quantified using Image Lab 6.0 software (BioRad). […]

Aca1 (in cell) = biological target: T2, Aca1 (in cell) (Pseudomonas aeruginosa phage JBD30); experiment: cell_activity; lacZ reporter in P. aeruginosa JBD30 lysogen
T2 chain: T1 chain

Aca1 R44A = biological target: T3, Aca1 R44A (Pseudomonas aeruginosa phage JBD30, R44A); experiment: EMSA; binding completely abolished; 10-500 nM; conditions: tags: p15TV-L expression, Ni-NTA purified; chain copies: 2 (inferred)
T3 chain: T1 chain with R44A
Procedure: FIG. 4A: Representative electrophoretic mobility shift assays with indicated Aca1 mutants using the 110 bp upstream region from phage JBD30 as a substrate. Purified protein was added at concentrations of 10 nM, 50 nM, 100 nM, 250 nM and 500 nM. […] Non-denaturing acrylamide gels stained with SYBR gold are shown. FIG. 4B: The anti-CRISPR promoter region from phage JBD30 was cloned upstream of a promoterless lacZ gene. β-galactosidase activity was measured in a wild-type JBD30 lysogen (WT Aca1), JBD30 Aca1 mutant lysogens as indicated, and wild-type PA14 with no prophage (−). The mean from three independent experiments relative to the wild-type Aca1 JBD30 lysogen is shown, with error bars representing the standard error of the mean. FIG. 4C: Lysates of phage JBD30 (WT or Aca1R44A mutant) were spotted in 10-fold serial dilutions on bacterial lawns of wild-type P. aeruginosa PA14, a CRISPR deletion version of PA14 (PA14ΔCRISPR), or on the deletion strain bearing a plasmid that expresses Aca1. These phages are targeted by the CRISPR-Cas system in the absence of anti-CRISPR activity. Representative images from three biological replicates are shown. […] FIG. 4E: The transcript levels of the acrIF1 and aca1 genes in phages bearing anti-CRISPR promoter operator mutants and aca mutants were determined by RT-qPCR. […]

Aca2 ZF40 = biological target: T4, Aca2 ZF40 (Pectobacterium phage ZF40, UniProt H9C180 H9C180:1-116); experiment: cell_activity; lacZ reporter in E. coli; text listing of SEQ 6 differs from the Table 8 sequence for this accession; conditions: chain copies: 2
T4 sequence: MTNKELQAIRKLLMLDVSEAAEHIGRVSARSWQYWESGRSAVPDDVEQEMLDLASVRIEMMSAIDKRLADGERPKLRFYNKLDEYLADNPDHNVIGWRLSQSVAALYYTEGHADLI
Excerpt: By aligning the intergenic regions found immediately upstream of anti-CRISPR genes associated with aca2, we detected a conserved inverted repeat sequence that could act as a binding site for Aca2 proteins (FIG. 11B). […] To investigate the functions of Aca2 and Aca3, the acrlaca regions from Pectobacterium phage ZF40 and from N. meningitidis strain 2842STDY5881035 were investigated as representatives of the Aca2 and Aca3 families, respectively. The putative promoter regions of the anti-CRISPR genes in these two operons (FIGS. 11B and 11D) were cloned upstream of a promoterless lacZ reporter gene carried on a plasmid. When assayed in E. coli, both regions mediated robust transcription of the reporter as detected by measuring β-galactosidase activity in cell extracts (FIG. 7).
β-galactosidase reporter assays. β-galactosidase reporter plasmids were transformed into DH5a and PA14. Overnight cultures of transformed cells were subcultured 1:100 and grown for ˜3 hours with shaking (OD₆₀₀=0.4-0.7). β-galactosidase activity was then quantified using a method derived from Zhang and Bremer, 1995. […] The reaction was stopped with the addition of 700 μL of 1 M Na₂CO₃, A420 and A550 were measured, and Miller Units were calculated.

## AcrIIA1 (full-length, from Listeria phage ΦA006)
[1]
  Nanoluciferase (NLuc) expression from the anti-CRISPR locus promoter, fold change in RLU, ΦA006acr::nluc lysogen: 5 fold

## phage A006 anti-CRISPR promoter palindrome
[2]
  Kd: 26 nM
[3]
  Kd: 28 nM

B1: IR1+IR2 mutant oligo (dsDNA)
DNA 1: ACAAGCGTCGTACTGTGCCTATTGCGAGCTAGTCCCAATGTGCCTAATCTAACG
DNA 2: CGTTAGATTAGGCACATTGGGACTAGCTCGCAATAGGCACAGTACGACGCTTGT
Aca1 [4]
  binding result: no binding

B2: acrIF1 promoter IR1-IR2 oligo WT (dsDNA)
DNA 1: ACAAGCGGCACACTGTGCCTATTGCGAATTAGGCACAATGTGCCTAATCTAACG
DNA 2: CGTTAGATTAGGCACATTGTGCCTAATTCGCAATAGGCACAGTGTGCCGCTTGT
Aca1 [5]
  binding result: binds

B3: JBD30 acrIF1 promoter 110 bp upstream region (dsDNA)
DNA 1: TGGCCACTTTCGGACAAGCGGCACACTGTGCCTATTGCGAATTAGGCACAATGTGCCTAATCTAACGTCATGCCAGCCACAACGGCGAGGCGCCAACAAGGATTCAAACC
DNA 2: GGTTTGAATCCTTGTTGGCGCCTCGCCGTTGTGGCTGGCATGACGTTAGATTAGGCACATTGTGCCTAATTCGCAATAGGCACAGTGTGCCGCTTGTCCGAAAGTGGCCA
Aca1 [6]
  Kd: ~50 nM
Aca1 (in cell)
  activity: 5 fold repression
Aca1 R44A
  binding result: no binding

B4: ZF40 acrIF8 promoter region (dsDNA)
DNA 1: AGCCTCACCTCCGGCGTTGCCGTGGCGCTGTGTGATTTACAGGAAATAAAAAGGCCACGAATGCGGCCTTAGCGATTAAAAAATATGAAATGCCTTGCTTGTTCGCGATTGCGAACATATAATTTATTCATCGGTTCGAG
DNA 2: CTCGAACCGATGAATAAATTATATGTTCGCAATCGCGAACAAGCAAGGCATTTCATATTTTTTAATCGCTAAGGCCGCATTCGTGGCCTTTTTATTTCCTGTAAATCACACAGCGCCACGGCAACGCCGGAGGTGAGGCT
Aca2 ZF40
  activity: 100 fold repression
